Consider 54 substances from the supplement of paper PMC12042874.

± gives the uncertainty stated by the source.

A short description of this data set: amyloid nucleation score (Sup35N fusion, yeast selection) (log enrichment); library NNK3; higher = more nucleation; inactive = no reads after selection. Summed up: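 Three technical output replicates were used for random libraries. Psi-negative yeast expressing peptides of 20 random codons fused to Sup35N were induced with 100 μM copper sulfate for 24 hours and grown 7 days at 30°C on medium lacking adenine and uracil, and input and output plasmid inserts were Illumina-sequenced, excluding sequences with under 100 input reads. The nucleation score is the DiMSum log enrichment of output over input reads, centred on the mode score of non-aggregating sequences.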
Regarding QYCVIMWPCIYFRVTFSF, the amyloid nucleation score result was “inactive”.

Turning to DDIRCMFRTADFRAKMSVNS, the amyloid nucleation score entry was “inactive”.

Consider EICSSNKRQRLKRVMEVIFC, for which the amyloid nucleation score entry was “inactive”. As for DAVGCNILACDSGGRDWTGG, the amyloid nucleation score was -0.744 ± 1.2.

Turning to RKYSVG, the amyloid nucleation score entry is “inactive”. Turning to FMYDYLAHLPGDFVNNSCRR, the amyloid nucleation score entry is “inactive”. The same measure for LRWLDVLDHTLDIYVSNESI: “inactive”; for GICHTFDAGTVFFLFGSWFI: “inactive”; for SWRRWSPCLIEVWHMFSLVT: “inactive”.

As for GDITSEYV, the amyloid nucleation score result is “inactive”. For the substance SQNAQESIPMRKFITPSRVF, the amyloid nucleation score entry was “inactive”. On to FVHSLRVVIW, for which the amyloid nucleation score entry is “inactive”. In turn, TMIFYYRYRLVCDGLFFCGT displayed an amyloid nucleation score of 0.034 ± 0.48. As to MMNILILCVKGMHFGRHKYV, the amyloid nucleation score entry is “inactive”. With HWPCLNSYEAIVFFCGMDSH the entry was “inactive”.

Consider HHRLSGEMSSWVATATCWVG, for which the amyloid nucleation score result is “inactive”.

With LRLVTMSYWPRYLLRRKCIR, the amyloid nucleation score result was “inactive”. The same measure for GCNNVH: “inactive”; for YDNVVYLIVGHYG: “inactive”.

As to KSLSGVIREENRDARGFWRS, the amyloid nucleation score entry was “inactive”. With YVWMKGHNHYFFESMDVYLM, the amyloid nucleation score result was “inactive”. As to TQLLMEFSTVSALDITPCDG, the amyloid nucleation score result was “inactive”. With SSSVTVYRFKGSTSSLGTNY the entry was “inactive”.

Regarding CSYRRLIFILCD, the amyloid nucleation score result was “inactive”. In the case of PNGSEIENLMYRGTLSC, the amyloid nucleation score entry was “inactive”.

As to TCFLRRFYWRYSGFYATAHY, the amyloid nucleation score result is “inactive”. With LNGMFG the entry was “inactive”. As for MRWMGDGMRSTNSSVNSHGL, the amyloid nucleation score result was “inactive”.

Turning to HWCTSKFIKPNGYPREERRV, the amyloid nucleation score entry is “inactive”. Consider MKVLYDKVKSVTASIELWFW, for which the amyloid nucleation score result is “inactive”.

Turning to APPGFFIIVMSCWCYITRAL, the amyloid nucleation score entry was “inactive”. Consider VNCATWNLNFTRMFMACIGL, for which the amyloid nucleation score was 1.28 ± 0.12.

As for LFYIWQSFQFRN, the amyloid nucleation score result was “inactive”.

SFFLIRG: the amyloid nucleation score result was “inactive”. For the substance LFRHLVNRLNLTSTAKYHGF, the amyloid nucleation score result was “inactive”. With QIALSYSCIITRCVCNLCQR the figure was 3.12 ± 0.056; with TICCSDLVVEDHG, “inactive”. For FLMCVNFVCCIIMCCGTIWG, the amyloid nucleation score entry is “inactive”. For the substance GCNDSSARLS, the amyloid nucleation score entry is “inactive”. On to VVNRHGYLAMLK, for which the amyloid nucleation score result was “inactive”.

In turn, WLNYCNCV registered an amyloid nucleation score of 1.91 ± 0.078. With ARRDLFHWCRRQSCVYN the figure was -0.275 ± 1.1; with TRSGST, “inactive”; with YSLFGWVSMFGC, “inactive”.

Take WQSRTKP: the amyloid nucleation score result was “inactive”. As for FVMRYRVVYSDRCFELGWHA, the amyloid nucleation score was -0.567 ± 0.76.

Consider WGWPSFTCTWLCRRSSCRWP, for which the amyloid nucleation score entry is “inactive”. With KIWFCNWFANNYFMIANSST the figure was 0.627 ± 0.11.

Turning to VCFILFSS, the amyloid nucleation score entry is “inactive”. As for MTLFDWFFLEIKAGWFRMVV, the amyloid nucleation score entry was “inactive”. The same measure for NRYLLRVVLYNSLTRLTVGF: “inactive”; for VGSRAGYMRQLSVSACTRVL: “inactive”; for VGDHDPSRFCQDNLCLSRCL: “inactive”. In the case of LMWTGF, the amyloid nucleation score entry was “inactive”.
